Laboratory results as given in IntAct's records for PubMed 19726565.

B1: Inositol phosphorylceramide synthase regulatory subunit KEI1 (Saccharomyces cerevisiae), Q06346 (parent)
chain: MRSSLLTLPKSFLGFMPLYLAVEIVLGISILNKCSGAYGILALFTGHPLDFMQWIAYLWSVFTLIVFSQGLYLIHKPNLLVFSQICVLYTIDTISTCFFTLWFTTQWFTLEDTANIDGNNALQSNPISTGKLTERGIDISKQSATESYEYTMTILITLVSLIFRFYFNFILASFVQELLHHPKYLVDRDDVEQNLKNKPIWKRLWAKSQKGCYKLCKNLLE
partner: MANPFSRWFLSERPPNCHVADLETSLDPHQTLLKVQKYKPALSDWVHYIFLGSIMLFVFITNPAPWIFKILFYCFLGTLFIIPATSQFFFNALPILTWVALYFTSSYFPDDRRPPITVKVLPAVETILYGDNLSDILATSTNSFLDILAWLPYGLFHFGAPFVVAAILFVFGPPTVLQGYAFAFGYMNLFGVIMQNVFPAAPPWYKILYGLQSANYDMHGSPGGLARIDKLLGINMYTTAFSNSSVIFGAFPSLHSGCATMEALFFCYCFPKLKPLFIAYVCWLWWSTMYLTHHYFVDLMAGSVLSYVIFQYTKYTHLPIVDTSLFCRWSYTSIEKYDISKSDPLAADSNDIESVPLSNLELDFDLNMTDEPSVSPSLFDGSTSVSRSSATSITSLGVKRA

Variants of: B1
Conditions: with aur1_yeast AUR1, P36107
For MRSSLLTLPKSFLGFMPLYLAVEIVLGISILNKCSGAYGILALFTGHPLDFMQWIAYLWSVFTLIVFSQGLYLIHKPNLLVFSQICVLYTIDTISTCFFTLWITTQWFTLEDTANIDGNNALQSNPISTGKLTERGIDISKQSATESYEYTMTILITLVSLIFRFYFNFILASFVQELLHHPKYLVDRDDVEQNLKNKPIWKRLWAKSQKGCYKLCKNLLE [F103I], the “effect of a mutation on the interaction” value was “disrupting interaction strength”.
